Test results published in patent US6528620B1, “Sid-polyamide fusions: a potent method of regulating gene expression” (University of Utah Research Foundation, priority 1999, dated 2003).
Each block holds one molecule with its values, some of them ahead of it. Where no end group is shown, it is not given here.

How the values were obtained:
[1] = target: T1, PAH2 domain of mSin3A (Mus musculus, UniProt Q60520); experiment: Directed two-hybrid assay (LexA-SID fusions with VP16PAH2, quantitative β-galactosidase); format: cell-based; conditions: for affinity for PAH2 relative to wild-type SID 8-20: fold higher; for interaction with PAH2 (relative β-galactosidase activity): LexA fusion with VP16PAH2 in S. cerevisiae strain L40
T1 construct: expressed in transfected cells; host or cells: S. cerevisiae strain L40
T1 sequence (Q60520 251-404): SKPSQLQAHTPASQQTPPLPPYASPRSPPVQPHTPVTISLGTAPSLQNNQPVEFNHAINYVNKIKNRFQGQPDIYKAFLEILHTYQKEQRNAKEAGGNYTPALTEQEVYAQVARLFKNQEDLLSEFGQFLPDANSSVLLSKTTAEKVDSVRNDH
Excerpt: Cloning and Interaction Assays—Fusions to the LexA DNA binding domain were made either by polymerase chain reaction amplifying SID 1-57 and SID 1-27 using pSPMad1 or pSPMad1 (L12P/A16P) (Ayer et al., Cell 80:767-776 (1995)) as template or by inserting a double-stranded oligonucleotide cassette encoding the various SID constructs between the EcoRI and BamH1 sites of pBTM116. Hollenberg et al., Mol. Cell. Biol. 15:3813-3822 (1995). Each construct was verified by sequencing. The different LexA fusion constructs and VP16PAH2 (Ayer et al., Cell 80:767-776 (1995)) were introduced into the S. cerevisiae strain L40 by lithium acetate transformation. Ausubel et al. eds., Current Protocols in Molecular Biology, John Wiley & Sons, Inc., New York (1995). Quantitative β-galactosidase assays were performed from three independent colonies in triplicate from liquid cultures. Ausubel et al. eds., Current Protocols in Molecular Biology, John Wiley & Sons, Inc., New York (1995). For each measurement the standard deviation was less than 10%.
We have used a directed two-hybrid assay to measure the relative affinity of the SID and various SID mutants for PAH2. Briefly, SID molecules based on the sequence of human Mad1 were fused to the DNA binding domain of bacterial LexA, and the PAH2 domain of mSin3A was fused to the transcriptional activation domain of VP16. Following introduction into the S. cerevisiae strain L40, relative affinity was measured by quantitative analysis of the β-galactosidase activity generated from an integrated LexA-dependent LacZ reporter gene.

[2] = Circular dichroism (CD) spectroscopy of SID peptides in TFE; format: physicochemical; conditions: for ability to adopt α-helical structure in TFE: increasing TFE concentrations (1, 20, 50%); for α-helical content: 50 μM peptide, 25° C.
Method: Circular Dichroism (CD) Spectroscopy—CD samples contained 50 μM of peptide, 1×phosphate-buffered saline, and the percentage of trifluoroethanol (TFE, Sigma) indicated in FIG. 4. CD spectra were collected on an Aviv 62DS spectrophotometer from 280 to 195 nm at 25° C. using a cell with a 0.1-cm pathlength. The reported spectra are the average of 15 consecutive runs. The observed ellipticity was converted to mean residue molar ellipticity [Θ] (deg cm^2 dmol^−1) using the relationship [Θ]=Θ/(Cr 1) where Θ is the observed ellipticity, 1 is the pathlength, and Cr is the mean residue molar concentration. Fractional helicities were calculated as described using values for [Θ]^0222 and [Θ]^100222, corresponding to 0% and 100% helical content at 222 nm, of −2000 and −28,400 deg cm^2 dmol^−1, respectively. Wu et al., Biochemistry 20:5766-570 (1981).
To test directly if the SID could adopt an α-helical structure, we measured the helical content of wild-type SID and mutant SID peptides using circular dichroism (CD) spectroscopy. […] Therefore, spectra for the wild-type and mutant SID peptides were measured in the solvent TFE, which is commonly used to stabilize α-helical conformation in peptides that have an inherent helical propensity. Sonnichsen et al., Biochemistry 31 :8790-8798 (1992), Jasanoff and Fersht, Biochemistry 33:2129-2135 (1994). […] At increasing TFE concentrations, the wild-type peptide adopts an α-helical structure as indicated by the strong negative peaks at 208 and 222 nm. In 20% TFE the SID is approximately 40% α-helical. This percentage increases to approximately 60% in 50% TFE.

[3] = target: VP16PAH2 (amino acids 251-404 of mSin3A encoding the PAH2 domain fused to the VP16 activation domain) (UniProt Q60520); experiment: directed yeast two-hybrid assay (LexA-SID with VP16PAH2, beta-galactosidase)

affinity for PAH2 relative to wild-type SID 8-20 ([1]; yeast strain L40): approximately 2 fold
Molecule: D17A: minimal SID 8-20 with single mutation D17A, LexA fusion (NIQMLLEAAAYLE; also: LexA fusion; UniProt Q05195 8-20, looked up, variant D17A)

affinity for PAH2 relative to wild-type SID 8-20 ([1]; yeast strain L40): approximately 2 fold
Molecule: E14A: minimal SID 8-20 with single mutation E14A, LexA fusion (NIQMLLAAADYLE; also: LexA fusion; UniProt Q05195 8-20, looked up, variant E14A)

interaction with PAH2 (relative β-galactosidase activity) [1]: unable to interact with PAH2
interaction with PAH2 (relative β-galactosidase activity) ([1]; listed as L19D): fails to interact with PAH2
interaction with PAH2 (relative β-galactosidase activity) ([1]; listed as Leu-19): severely impaired binding
Molecule: GGGMNIQMLLEAADYDE [L19D SID, same mutation also tested as LexA-SID 8-20 fusion]
CD spectrum / helicity compared with wild-type SID ([2]; 50% TFE): nearly identical to that collected for the wild-type SID
reduction of helicity relative to wild-type ([2]; 50% TFE): ~5%
ability to adopt α-helical structure in TFE [2]: retain helical structure
ability to adopt α-helical structure in TFE ([2]; listed as L19D): retains helical structure

Molecule: GGGMNIQMLLEAADYLE [wild-type SID peptide]
α-helical content ([2]; 20% TFE): approximately 40%
α-helical content ([2]; 50% TFE): approximately 60%
secondary structure ([2]; aqueous solution containing 1% TFE): lacks secondary structure
ability to adopt α-helical structure in TFE [2]: able to adopt an α-helical conformation

interaction with PAH2 (relative β-galactosidase activity) [1]: unable to interact with PAH2
interaction with PAH2 (relative β-galactosidase activity) ([1]; listed as A15E): fails to interact with PAH2
interaction with PAH2 (relative β-galactosidase activity) ([1]; listed as Ala-15): severely impaired binding
Molecule: GGGMNIQMLLEDADYLE [A15D SID, same mutation also tested as LexA-SID 8-20 fusion]
CD spectrum / helicity compared with wild-type SID ([2]; 50% TFE): slightly less helical than the wild-type SID
reduction of helicity relative to wild-type ([2]; 50% TFE): approximately 40%
ability to adopt α-helical structure in TFE [2]: retain helical structure
ability to adopt α-helical structure in TFE ([2]; listed as A15E): retains helical structure

interaction with PAH2 (relative β-galactosidase activity) [1]: fails to interact with PAH2
interaction with PAH2 (relative β-galactosidase activity) ([1]; listed as L12P/A16P): failed to interact with PAH2
Molecule: GGGMNIQMPLEAPDYLE [L12P/A16P SID, same mutation also tested as LexA fusion in two-hybrid]
ability to adopt α-helical structure in TFE [2]: cannot adopt an α-helical structure
ability to adopt α-helical structure in TFE ([2]; listed as L12P/A16P): remained unchanged with increasing concentrations of TFE
ability to adopt α-helical structure in TFE ([2]; listed as double proline mutant SID peptide): incapable of α-helix formation

Molecule: LexA fused to SID 8-20 D17A (from UniProt P0A7C2 1-202)
fold higher affinity than wild-type SID 8-20 (relative beta-galactosidase activity) [3]: 2 fold

Molecule: LexA fused to SID 8-20 E14A (from UniProt P0A7C2 1-202)
fold higher affinity than wild-type SID 8-20 (relative beta-galactosidase activity) [3]: 2 fold

Molecule: LexA fused to SID 8-20 Q10A (from UniProt P0A7C2 1-202)
fold higher affinity than wild-type SID 8-20 (relative beta-galactosidase activity) [3]: 2 fold

Molecule: LexA fused to SID 8-20 Q10A/E14A/D17A (from UniProt P0A7C2 1-202)
fold better binding than wild-type SID [3]: 2 fold

Molecule: LexA fused to SID 8-20 Q10R (from UniProt P0A7C2 1-202)
fold reduction of binding against wild-type SID 8-20 (relative beta-galactosidase activity) [3]: 4 fold

affinity for PAH2 relative to wild-type SID 8-20 ([1]; yeast strain L40): two-fold
Molecule: Q10A/E14A/D17A: minimal SID 8-20 containing all three alanine mutations, LexA fusion (NIAMLLAAAAYLE; also: LexA fusion; UniProt Q05195 8-20, looked up, variant Q10A E14A D17A)

affinity for PAH2 relative to wild-type SID 8-20 ([1]; yeast strain L40): approximately 2 fold
Molecule: Q10A: minimal SID 8-20 with single mutation Q10A, LexA fusion (NIAMLLEAADYLE; also: LexA fusion; UniProt Q05195 8-20, looked up, variant Q10A)

reduction of binding to PAH2 relative to wild-type SID 8-20 ([1]; yeast strain L40, fold reduced): 4 fold
Molecule: QLOR: minimal thirteen amino acid SID (8-20) with mutation at Gln-10, LexA fusion (NIRMLLEAADYLE; also: LexA fusion; UniProt Q05195 8-20, looked up, variant Q10R)

interaction with PAH2 (relative β-galactosidase activity) [1]: severely impaired binding
Molecule: Tyr-18: minimal SID 8-20 with Tyr-18 mutated to aspartic acid, LexA fusion (NIQMLLEAADDLE; also: LexA fusion; UniProt Q05195 8-20, looked up, variant Y18D)

interaction with PAH2 (relative β-galactosidase activity) [1]: sufficient for interaction
B1: SID 1-57: LexA DNA binding domain fused to amino acids 1-57 of Mad1 (protein)
chain: MKALTARQQEVFDLIRDHISQTGMPPTRAEIAQRLGFRSPNAAEEHLKALARKGVIEIVSGASRGIRLLQEEEEGLPLVGRVAAGEPLLAQQHIEGHYQVDPSLFKPNADFLLRVSGMSMKDIGIMDGDLLAVHKTQDVRNGQVVVARIDDEVTVKRLKKQGNKVELLPENSEFKPIVVDLRQQSFTIEGLAVGVIRNGDWLMAAAVRMNIQMLLEAADYLERREREAEHGYASMLPYNNKDRDALKRRNKSKKNNSSS

interaction with PAH2 (relative β-galactosidase activity) [1]: necessary and sufficient for interaction
B2: NIQMLLEAADYLE (protein)
chain: MKALTARQQEVFDLIRDHISQTGMPPTRAEIAQRLGFRSPNAAEEHLKALARKGVIEIVSGASRGIRLLQEEEEGLPLVGRVAAGEPLLAQQHIEGHYQVDPSLFKPNADFLLRVSGMSMKDIGIMDGDLLAVHKTQDVRNGQVVVARIDDEVTVKRLKKQGNKVELLPENSEFKPIVVDLRQQSFTIEGLAVGVIRNGDWLNIQMLLEAADYLE
